Residue numbers refer to the chain shown, from its start. Names may count otherwise.
T1: human LY6H, endogenous on cancer cell lines (H446, DMS79, H526, MOLT3, KE-37) (human, UniProt O94772 26-115)
T1 construct: Endogenous protein on human SCLC and T-ALL cell lines
T1 sequence (looked up): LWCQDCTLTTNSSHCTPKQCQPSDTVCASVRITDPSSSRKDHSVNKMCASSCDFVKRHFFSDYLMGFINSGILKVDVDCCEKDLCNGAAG

T2: recombinant human LY6H-ECD (C-terminal histidine tag) (human, UniProt O94772 26-115)
T2 construct: The ectodomain was cloned by PCR with a non-native signal peptide and a C-terminal histidine tag; also called recombinant LY6H; hLY6H-ECD; not shown: C-terminal histidine tag
T2 sequence (looked up): T1 sequence (looked up)

T3: Macaca fascicularis LY6H expressed on 293T cells (plasmid BBP 492/598, M1-P140 plus Myc-DDK) (Macaca fascicularis, UniProt Q4R5M8 26-115)
T3 construct: Full construct as encoded; also called monkey LY6H; not shown: Myc-DDK tag at the C-terminus
T3 sequence: T1 sequence (looked up) with C80Y, A88V

B1: 22A5_19A5 (antibody, V domains shown)
VH: QVQLVESGGGVVQPGRSLRLSCAASGFTFSSYGMHWVRQAPGKGLEWVAVIWYDGSNKYYADSVKGRFTISRDNSKNTLYLQMNSLRAEDTAVYYCARDLWFGESRGGMDVWGQGTTVTVSS
VL: not shown
notes: human anti-LY6H antibody
B2: 12G7 (antibody, V domains shown)
VH: QVQLQQWGAGLLKPSETLSLTCAVYGGSFSGYYWSWIRQPPGKGLEWIGEINHSGSTYYNPSLKSRVTMSVDTSKNQFSLKLSSVTAADTAVYYCAKRWELGAFDIWGQGTMVTVSS
VL: DIQMTQSPSSLSASVGDRVTITCRASQGISNYLAWYQQKPGKVPKLLIYAASTLQSGVPSRFSGSGSGTDFTLTISSLQPEDVATYYCQKYNSAPRTFGQGTKLEIK
notes: Recombinant antibody from H2L2 mice (human variable regions), made in CHO cells, purified on Protein A and detected with anti-human IgG; also called 12G7_19A2; anti-LY6H antibody (12G7)
B3: 34H6 (antibody, V domains shown)
VH: QVQLVESGGGVVQPGRSLRLSCAASGFTFSSYGMHWVRQAPGKGLEWVAVIWYDGSNKYYADSVKGRFTISRDNSKNTLYLQMNSLRAEDTAVYYCARSIVVVTGFGDYWGQGTLVTVSS
VL: not shown
notes: also called 34H6_20A1
B4: 11D9 (antibody, V domains shown)
VH: QVQLQESGPGLVKPSGTLSLTCTVSGGSISSSSWWSWVRLPPGKGLEWIGEIYHSGSTNYNPSLKSRVTISVDKSKNQFSLKLSSVTAADTAVYYCGGVRGVVMAFDIWGQGTMVTVSS
VL: not shown
notes: also called 11D9_19D5
B5: 23F3 (antibody, V domains shown)
VH: QVQLQESGPGLVKPSGTLSLTCAVSGGSISSSNWWSWVRQPPGKGLEWIGEIYHSGSTNYNPSLKSRVTISVDKSKNQFSLKLSSVTAADTAVYYCARVDILTGGNFDYWGQGTLVTVSS
VL: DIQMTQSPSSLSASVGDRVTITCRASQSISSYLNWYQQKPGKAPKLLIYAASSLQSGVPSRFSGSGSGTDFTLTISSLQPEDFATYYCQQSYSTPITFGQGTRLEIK
notes: also called 23F3_19B2
B6: 6D11 (antibody, V domains shown)
VH: QVQLQQWGAGLFKPSETLSLTCAVYGGSFSGSLWSWIRQPPGKGLEWIGEINHSGSTNYTPSLKSRVTISVDTSKNQFSLKLTSVTAADTAVYYCARGRHIVVVTAIHSPFDYWGQGTLVTVSS
VL: B2 VL with Y49F
notes: Recombinant antibody made in CHO cells; also called 6D11_25D6
B7: 10B10 (antibody, V domains shown)
VH: QVQLQQWGAGLLKPSETLSLTCAVYGGSFSGYYWHWIRQPPGKGLEWIGEINHSESTKYNPSLKSRVTISVDTSKNQFSLKLSSVTGADTAVYYCARGQHIVVVTDSLGDYWGQGTLVTVSS
VL: B2 VL
notes: also called 10B10_25A1
B8: 10B10-S54A (antibody, V domains shown)
VH: B7 VH with S54A
VL: B2 VL
B9: 12G7-S54A (antibody, V domains shown)
VH: B2 VH with S54A
VL: B2 VL
B10: 6D11-41B4 (antibody, V domains shown)
VH: B6 VH with S54A, N58Q
VL: B2 VL with Y49F
B11: 1F8 (antibody, V domains shown)
VH: B3 VH with S31N, N57Y, A88T, G105A, F106T, G107L
VL: not shown
notes: also called 1F8_25B6; IF8
B12: 2B11 (antibody, V domains shown)
VH: B3 VH with S31N, A88T, G105A, F106T, G107L
VL: not shown
notes: also called 2B11_25D1

target: T1, human LY6H, endogenous on cancer cell …; assay: flow cytometry, antibody titrated 0.1-100 nM on H526 cells, MFI; column H526_EC50 (nM); value lies above the highest concentration tested, curve has no plateau
Experimental: (§1) The assay uses 3-5 fold dilutions (from 100 nM to 0.1 nM) of antibody of a stock antibody concentration (100 nM) in binding buffer. Serial diluted antibodies were incubated with live cells on ice for 30 minutes, after a brief wash, cells were incubated with Alexa Fluro® 488-conjugated anti-human IgG secondary antibody @1:100, or 15 μg/ml (709-546-149, Jackson ImmunoResearch). Acquisition of the MFI (Median Fluorescent Intensity) was performed on a MACSQuant® Flow Cytometers (Miltenyi Biotec). EC₅₀ was calculated using Dose-response EC₅₀ shift by global fitting from GraphPad Prism.
(§2) An estimate of affinity is interpreted from one-half the concentration at which antibody binding first achieves saturation.

B1 gave an EC50 of 122 nM.

target: T1, human LY6H, endogenous on cancer cell …; assay: flow cytometry, antibody titrated 0.1-100 nM on H526 cells, MFI; column H526_EC50 (nM)
Experimental: as §1, §2

Point of comparison: B2, EC50 1.9 nM. Against it:
- B3 — 1.5-fold higher, 2.9 nM

target: T1, human LY6H, endogenous on cancer cell …; assay: flow cytometry, antibody titrated 0.1-100 nM on H526 cells, MFI; column H526_EC50 (nM); curve has no plateau at 100 nM
Experimental: as §1, §2

Point of comparison: B4, EC50 13.2 nM. Against it:
- B5 — 5.6-fold higher, 73.5 nM

target: T1, human LY6H, endogenous on cancer cell …; assay: flow cytometry, antibody titrated 0.1-100 nM on DMS79 cells, MFI; upper panel and table, column DMS79_EC50 (nM)
Experimental: as §1, §2

Point of comparison: B2, EC50 2.4 nM. Against it:
- B4 — within 1.5-fold, 2.2 nM
- B3 — 2.7-fold lower, 0.9 nM
- B5 — 7.4-fold higher, 17.8 nM

target: T1, human LY6H, endogenous on cancer cell …; assay: flow cytometry, antibody titrated 0.1-100 nM on H446 cells, MFI; column H446_EC50 (nM)
Experimental: as §1, §2

Point of comparison: B4, EC50 2.6 nM. Against it:
- B2 — within 1.5-fold, 3 nM
- B3 — within 1.5-fold, 2.4 nM
- B5 — within 1.5-fold, 2.3 nM

target: T2, recombinant human LY6H-ECD (C-terminal …); assay: Octet Red BLI, antibody on Protein A biosensor, recombinant human LY6H in solution
Experimental: (§3) Affinity: The affinity of antibodies to various recombinant LY6H protein was determined on an Octet Red™ instrument. After loading reagents into a 96-well plate, the Octet Red with Protein A-conjugated biosensors was programmed as follows: 30 seconds for baseline #1; 120 seconds to immobilize the antibody; 30 seconds for baseline #2; 300 seconds for association of antibody to recombinant LY6H; and 300-600 seconds for dissociation of recombinant LY6H from the antibody.

Point of comparison: B2, Kd 4 nM. Against it:
- B6 — 5.5-fold higher, 22 nM
- B7 — 12-fold higher, 47 nM
- B8 — 10-fold higher, 42 nM
- B9 — the same, 4 nM
- B10 — 6.2-fold higher, 25 nM
- B4 — 7.8-fold higher, 31 nM
- B11 — 8.2-fold higher, 33 nM

target: T3, Macaca fascicularis LY6H expressed on …; assay: on-cell affinity by flow cytometry: unconjugated 1F8 (0.05-100 nM) competes with 1 nM PE-conjugated 1F8 on 293T cells expressing Macaca fascicularis LY6H (per legend paragraph 131); table row 293T-mmLY6H
Experimental: (§4) Serial diluted antibodies were incubated with 293 cells expressing either human or Macaca fascicularis on ice for 4 hours, after a brief wash. Acquisition of the MFI (Median Fluorescent Intensity) was performed on a MACSQuant® Flow Cytometers (Miltenyi Biotec). On cell affinity (Kd) was calculated using dose-response EC50 shift by global fitting from GraphPad Prism™.
as §4, with “live” for “293”, “cells” for “cells expressing either human or Macaca fascicularis”, “Dose-response EC₅₀” for “dose-response EC50”

With B11 the Kd was 21 nM.

target: T3, Macaca fascicularis LY6H expressed on …; assay: flow cytometry on 293 cells expressing Macaca fascicularis LY6H (293-neo-cyno LY6H); antibody 1 ug/ml per paragraph 484; solid histogram = hIgG1 control [cont.]
Experimental: Staining for flow cytometry was performed in 1× cold PBS with 0.5% BSA.

B6: binds.

target: T1, human LY6H, endogenous on cancer cell …; assay: flow cytometry, antibody titrated 0.1-100 nM on MOLT3 cells, MFI; upper panel and table, column MOLT3_EC50 (nM)
Experimental: as §1, §2

Point of comparison: B2, EC50 0.7 nM. Against it:
- B4 — 2-fold higher, 1.4 nM
- B3 — the same, 0.7 nM
- B5 — 7.7-fold higher, 5.4 nM

target: T1, human LY6H, endogenous on cancer cell …; assay: flow cytometry, antibody titrated 0.1-100 nM on MOLT3 cells, MFI; lower panel and table, column MOLT3_EC50 (nM)
Experimental: as §1, §2

Point of comparison: B12, EC50 3.9 nM. Against it:
- B6 — 6.5-fold lower, 0.6 nM
- B7 — 5.6-fold lower, 0.7 nM
- B2 — 4.9-fold lower, 0.8 nM
- B11 — within 1.5-fold, 2.7 nM

target: T3, Macaca fascicularis LY6H expressed on …; assay: on-cell affinity by flow cytometry: unconjugated 12G7 (0.05-100 nM) competes with 1 nM PE-conjugated 12G7 on 293T cells expressing Macaca fascicularis LY6H (per legend paragraph 131); table row 293T-mmLY6H
Experimental: as §4
as §4, with “live” for “293”, “cells” for “cells expressing either human or Macaca fascicularis”, “Dose-response EC₅₀” for “dose-response EC50”

B2 gave a Kd of 14.5 nM.

target: T2, recombinant human LY6H-ECD (C-terminal …); assay: Octet (bio-layer interferometry), table row Octet; antigen not named on the sheet, recombinant human LY6H per paragraph 455 and Table 8 (Table 8 prints 33 for 1F8)
Experimental: as §3

B11 showed a Kd of 31 nM.

target: T1, human LY6H, endogenous on cancer cell …; assay: flow cytometry, antibody titrated 0.1-100 nM on DMS79 cells, MFI; lower panel and table, column DMS79_EC50 (nM)
Experimental: as §1, §2

Point of comparison: B2, EC50 1.9 nM. Against it:
- B6 — within 1.5-fold, 1.3 nM
- B7 — within 1.5-fold, 2 nM
- B12 — 1.8-fold higher, 3.4 nM
- B11 — 1.7-fold higher, 3.3 nM

From patent publication US20250319180A1 (BLUEFIN BIOMEDICINE, published 2025)
